Results reported in US20250270324A1 (INVOX PHARMA, published 2025).
Residue numbers refer to the chain shown, from its start.

B1: G1/929_01_A11 (antibody, human IgG1)
heavy: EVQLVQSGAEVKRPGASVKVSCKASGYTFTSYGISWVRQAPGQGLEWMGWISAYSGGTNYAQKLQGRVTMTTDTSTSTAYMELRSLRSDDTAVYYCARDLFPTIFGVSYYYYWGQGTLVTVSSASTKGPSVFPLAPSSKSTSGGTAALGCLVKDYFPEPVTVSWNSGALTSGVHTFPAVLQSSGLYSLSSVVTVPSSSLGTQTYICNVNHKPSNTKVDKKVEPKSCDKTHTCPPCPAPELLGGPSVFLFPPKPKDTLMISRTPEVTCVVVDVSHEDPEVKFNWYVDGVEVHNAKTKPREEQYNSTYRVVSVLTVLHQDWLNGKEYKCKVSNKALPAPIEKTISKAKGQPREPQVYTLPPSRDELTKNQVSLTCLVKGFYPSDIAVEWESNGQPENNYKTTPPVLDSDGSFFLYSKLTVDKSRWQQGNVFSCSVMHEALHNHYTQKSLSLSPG
light: DIQMTQSPSTLSASVGDRVTITCRASQSISGRLAWYQQKPGKAPNLLIYEASNLESGVPSRFSGSGSGTEFTLTISSLQPEDFATYYCQQSYSWPRTFGQGTKVEIKRTAAAAPSVFIFPPSDEQLKSGTASVVCLLNNFYPREAKVQWKVDNALQSGNSQESVTEQDSKDSTYSLSSTLTLSKADYEKHKLYACEVTHQGLSSPVTKSFNRGEC
notes: IgG1; said to be the same as G1AA/G12v2 but without LALA
B2: G1/929_01_A10 (antibody, human IgG1, V domains shown)
VH: EVQLVQSGAEVKRPGASVKVSCKASGYTFTSYGISWVRQAPGQGLEWMGWISAYGGSTNYAQKLQGRVTMTTDTSTSTAYMELRSLRSDDTAVYYCARDLFPTIFGVSYYYYWGQGTLVTVSS
VL: DIQMTQSPSTLSASVGDRVTITCRASQSISGRLAWYQQKPGKAPNLLIYEASNLESGVPSRFSGSGSGTEFTLTISSLQPEDFATYYCQQSYSWPRTFGQGTKVEIKR
notes: IgG1
B3: G1/929_01_A12 (antibody, human IgG1, V domains shown)
VH: B2 VH with G55S, S57N, T58A
VL: B2 VL
notes: IgG1
B4: G1/280_02_G02_NS (antibody, human IgG1)
heavy: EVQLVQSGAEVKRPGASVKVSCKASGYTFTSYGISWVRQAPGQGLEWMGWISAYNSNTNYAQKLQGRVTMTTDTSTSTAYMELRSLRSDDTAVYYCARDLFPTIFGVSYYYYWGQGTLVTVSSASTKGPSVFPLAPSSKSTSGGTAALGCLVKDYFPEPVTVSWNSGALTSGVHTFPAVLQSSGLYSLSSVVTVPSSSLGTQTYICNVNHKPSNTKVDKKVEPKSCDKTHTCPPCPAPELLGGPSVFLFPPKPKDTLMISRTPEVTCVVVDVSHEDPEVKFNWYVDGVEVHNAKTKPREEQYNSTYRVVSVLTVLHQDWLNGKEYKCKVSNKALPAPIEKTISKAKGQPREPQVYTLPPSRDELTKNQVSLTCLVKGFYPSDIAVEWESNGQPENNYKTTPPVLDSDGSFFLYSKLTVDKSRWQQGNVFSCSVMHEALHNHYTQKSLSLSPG
light: QSALTQPASVSGSPGQSITISCTGTSSDVGGYNSVSWYQQFPGKAPKLMIFEVTNRPSGVSDRFSGSKSDNTASLTISGLQAEDEAEYYCSSFKRGSTLVVFGGGTKLTVLGQPAAAPSVTLFPPSSEELQANKATLVCLISDFYPGAVTVAWKADSSPVKAGVETTTPSKQSNNKYAASSYLSLTPEQWKSHRSYSCQVTHEGSTVEKTVAPTECS
notes: IgG1 without LALA, lambda light chain; NG to NS variant of G1/280_02_G02
B5: G1/929_01_A01 (antibody, human IgG1, V domains shown)
VH: B2 VH
VL: DIQMTQSPSTLSASVRDRVIITCRASQSIGNRLAWYQHKPGKAPKLLIYEASTSETGVPSRFSGSGSGTDFTLTISSLQPEDFATYYCQQSYSTPYTFGQGTKLEIKR
notes: IgG1; The heavy chain as printed has T28
B6: G1/929_01_A03 (antibody, human IgG1, V domains shown)
VH: B2 VH with G55S, S57N, T58A
VL: B5 VL
notes: IgG1
B7: G1/929_01_A05 (antibody, human IgG1, V domains shown)
VH: B2 VH with G55S, S57G
VL: DIQMTQSPSTLSASVGDRVTITCRASQSISGRLAWYQQKPGKAPNLLIYEASNLESGVPSRFSGSGSGTEFTLTINSLQPDDFATYYCQQANTFPRVSFGGGTKVEIKR
notes: IgG1
B8: G1/894_08_A05 (antibody, human IgG1, V domains shown)
VH: B2 VH with G55N, G56S, S57N
VL: B7 VL
notes: IgG1 without LALA, kappa light chain
B9: G1/929_01_A04 (antibody, human IgG1, V domains shown)
VH: B2 VH
VL: B7 VL
notes: IgG1; GGST variant of G1/894_08_A05
B10: G1/929_01_A06 (antibody, human IgG1, V domains shown)
VH: B2 VH with G55S, S57N, T58A
VL: B7 VL
notes: IgG1
B11: G1/929_01_A07 (antibody, human IgG1, V domains shown)
VH: B2 VH
VL: B7 VL with N76S, D81E, A91S, N92Y, T93S, F94T, S98T, G101Q
notes: IgG1; GGST variant of G1/894_08_E05
B12: G1/929_01_A08 (antibody, human IgG1)
heavy: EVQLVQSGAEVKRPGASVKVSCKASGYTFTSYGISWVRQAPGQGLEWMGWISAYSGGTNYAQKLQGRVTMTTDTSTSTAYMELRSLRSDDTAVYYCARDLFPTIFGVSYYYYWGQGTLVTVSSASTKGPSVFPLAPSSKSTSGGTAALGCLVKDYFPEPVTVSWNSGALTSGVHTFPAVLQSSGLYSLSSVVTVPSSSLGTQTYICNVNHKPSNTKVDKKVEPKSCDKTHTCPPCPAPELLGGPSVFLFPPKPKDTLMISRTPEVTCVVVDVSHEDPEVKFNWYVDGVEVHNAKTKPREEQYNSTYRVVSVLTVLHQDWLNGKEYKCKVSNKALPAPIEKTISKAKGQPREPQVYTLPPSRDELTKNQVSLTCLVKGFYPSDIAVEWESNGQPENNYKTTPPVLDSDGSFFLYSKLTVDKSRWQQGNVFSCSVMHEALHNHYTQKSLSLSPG
light: DIQMTQSPSTLSASVGDRVTITCRASQSISGRLAWYQQKPGKAPNLLIYEASNLESGVPSRFSGSGSGTEFTLTISSLQPEDFATYYCQQSYSTPRVTFGQGTKVEIKRTAAAAPSVFIFPPSDEQLKSGTASVVCLLNNFYPREAKVQWKVDNALQSGNSQESVTEQDSKDSTYSLSSTLTLSKADYEKHKLYACEVTHQGLSSPVTKSFNRGEC
notes: IgG1; SGGT variant of G1/894_08_E05; said to be the same as G1AA/E05v2 but without the LALA mutation
B13: G1/929_01_A09 (antibody, human IgG1, V domains shown)
VH: B2 VH with G55S, S57N, T58A
VL: B7 VL with N76S, D81E, A91S, N92Y, T93S, F94T, S98T, G101Q
notes: IgG1; SGNA variant of G1/894_08_E05
B14: G1AA/280_02_G02_NS (antibody, human IgG1, L234A L235A)
heavy: not shown
light: B4 light
notes: also called G1AA/280_2_G02_NS
B15: G1AA/lambdav3 (antibody, human IgG1, L234A L235A, V domains shown)
VH: B2 VH with G55S, S57G
VL: QSALTQPASVSGSPGQSITISCTGTSSDVGGYNYVSWYQQFPGKAPKLMIFEVTNRPSGVSDRFSGSKSDNTASLTISGLQAEDEAEYYCSSFKRGSTLVVFG
notes: IgG1 with LALA, lambda light chain; also called G1AA/lamdav3
B16: G1AA/E05v2 (antibody, human IgG1, kappa, L234A L235A)
heavy: not shown
light: DIQMTQSPSTLSASVGDRVTITCRASQSISGRLAWYQQKPGKAPNLLIYEASNLESGVPSRFSGSGSGTEFTLTISSLQPEDFATYYCQQSYSTPRVTFGQGTKVEIKRTVAAPSVFIFPPSDEQLKSGTASVVCLLNNFYPREAKVQWKVDNALQSGNSQESVTEQDSKDSTYSLSSTLTLSKADYEKHKVYACEVTHQGLSSPVTKSFNRGEC
notes: IgG1 with LALA, kappa light chain
B17: G1AA/E12v2 (antibody, human IgG1, kappa, L234A L235A, V domains shown)
VH: B2 VH with T28P, G55S, S57G
VL: B5 VL
notes: IgG1 with LALA, kappa light chain; SGGT at 54-57 and proline at Kabat 28 of VH
B18: G1AA/G12v2 (antibody, human IgG1, kappa, L234A L235A)
heavy: not shown
light: DIQMTQSPSTLSASVGDRVTITCRASQSISGRLAWYQQKPGKAPNLLIYEASNLESGVPSRFSGSGSGTEFTLTISSLQPEDFATYYCQQSYSWPRTFGQGTKVEIKRTVAAPSVFIFPPSDEQLKSGTASVVCLLNNFYPREAKVQWKVDNALQSGNSQESVTEQDSKDSTYSLSSTLTLSKADYEKHKVYACEVTHQGLSSPVTKSFNRGEC
notes: as for B16

What follows are binders tested against T1, Cyno PD-L1-rCD4-His (cynomolgus) (assay: SPR, IgG1 from culture supernatant).
T1 construct: The entry as printed begins with the signal peptide; also called cynomolgus PD-L1-rCD4-His
T1 sequence (chain, as listed by the source limits assumed): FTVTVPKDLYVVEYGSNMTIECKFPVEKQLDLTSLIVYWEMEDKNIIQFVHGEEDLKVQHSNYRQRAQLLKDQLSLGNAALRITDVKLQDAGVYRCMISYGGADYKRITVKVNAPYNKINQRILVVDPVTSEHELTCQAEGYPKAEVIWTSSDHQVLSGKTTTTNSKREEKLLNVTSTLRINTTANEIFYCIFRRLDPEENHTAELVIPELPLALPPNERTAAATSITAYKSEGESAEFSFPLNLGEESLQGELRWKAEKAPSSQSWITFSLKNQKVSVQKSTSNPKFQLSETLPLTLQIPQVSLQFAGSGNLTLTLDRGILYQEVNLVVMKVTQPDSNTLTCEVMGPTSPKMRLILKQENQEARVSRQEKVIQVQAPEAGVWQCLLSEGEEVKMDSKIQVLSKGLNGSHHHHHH
Binder B1 has a Kd of 0.57 nM.
Binder B2 has a Kd of 0.6 nM.
Binder B3 has a Kd of 0.66 nM.
In the case of B4, the Kd is reported as 1.8 nM.
Binder B5 has a Kd of 3.18 nM.
For B6, the Kd was 3.31 nM.
B7 gave a Kd of 0.62 nM.
Work on B8 yielded a Kd of 0.57 nM.
Work on B9 yielded a Kd of 0.6 nM.
B10 gave a Kd of 0.58 nM.
With B11 the Kd was 0.59 nM.
With B12 the Kd was 0.65 nM.
For B13, the Kd was 0.57 nM.

What follows are binders tested against T2, human PD-L1-rCD4-His (human) (assay: SPR, IgG1 from culture supernatant).
T2 construct: Human PD-L1 fused to the monomeric C-terminal rat CD4 domains 3 and 4 tag and His tag; made in HEK293; The entry as printed begins with the signal peptide (MRIF...); also called hPD-L1-rCD4-His; hu-PD-L1-rCD4-His
T2 sequence (chain, as listed by the source limits assumed): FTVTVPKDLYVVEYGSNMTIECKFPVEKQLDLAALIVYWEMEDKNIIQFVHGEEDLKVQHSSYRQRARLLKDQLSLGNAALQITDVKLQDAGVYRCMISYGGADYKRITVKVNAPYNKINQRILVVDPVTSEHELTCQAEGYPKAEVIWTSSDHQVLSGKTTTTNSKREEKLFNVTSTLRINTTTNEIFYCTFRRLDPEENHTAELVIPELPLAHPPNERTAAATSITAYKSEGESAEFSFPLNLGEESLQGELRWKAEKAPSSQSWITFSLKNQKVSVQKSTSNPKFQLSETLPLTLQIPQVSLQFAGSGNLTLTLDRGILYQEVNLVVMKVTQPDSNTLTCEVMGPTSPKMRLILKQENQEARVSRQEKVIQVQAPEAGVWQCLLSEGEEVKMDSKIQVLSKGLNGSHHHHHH
Binder B1 has a Kd of 0.51 nM.
Work on B2 yielded a Kd of 0.42 nM.
Work on B3 yielded a Kd of 0.51 nM.
B4 was tested, and the Kd was 1.2 nM.
Work on B5 yielded a Kd of 2.66 nM.
For B6, the Kd was 2.66 nM.
B7 showed a Kd of 0.55 nM.
B8 gave a Kd of 0.42 nM.
Work on B9 yielded a Kd of 0.47 nM.
Binder B10 has a Kd of 0.45 nM.
B11 was tested, and the Kd was 0.47 nM.
B12 gave a Kd of 0.5 nM.
Work on B13 yielded a Kd of 0.49 nM.

The binders below were run against T3, mouse PD-L1-His (Acro Biosystems, PD1-M5220) (mouse, UniProt Q9EP73 19-238) (assay: SPR (Biacore T200), mAb on Protein A chip, antigen 81-0.037 nM; Rmax of the human profile used).
T3 construct: Bought; also called recombinant mouse PD-L1
T3 sequence (Q9EP73 19-238 limits assumed): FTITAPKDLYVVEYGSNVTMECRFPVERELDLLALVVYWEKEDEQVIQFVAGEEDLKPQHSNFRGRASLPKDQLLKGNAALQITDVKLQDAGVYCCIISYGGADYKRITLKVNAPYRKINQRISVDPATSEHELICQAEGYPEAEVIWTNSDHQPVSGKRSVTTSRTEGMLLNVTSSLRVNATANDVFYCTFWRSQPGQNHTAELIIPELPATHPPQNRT
Description: (§1) Briefly, the anti-PD-L1 mAbs, diluted in HBS-EP buffer (GE Healthcare, BR100188) at 2 μg/ml, were injected individually on flows cell 2, 3 and 4 of a Protein A chip (GE Healthcare, 29127556) at 30 μl/min to achieve a final response of approximately 110 RU. The recombinant human, cynomolgus and mouse PD-L1-His antigens, diluted in HBS-EP buffer, were injected on flow cell 1, 2, 3 or 4 as appropriate at a concentration range of 81 nM to 0.037 nM with 3-fold dilutions for 4 min at 75 μl/min and then allowed to dissociate in buffer for 10 min. Regeneration was achieved by injecting 10 mM glycine-HCL pH1.5 (GE Healthcare, Human Antibody Capture Kit, BR00356) for 30 sec at a rate of 30 μl/min. Subtracted data (flow cell 2-flow cell 1, flow cell 3-flow cell 1, or flow cell 4-flow cell 1) were analysed using BIAevaluation 3.2 Software (GE Healthcare) to identify binding using the model 1:1 binding with mass transfer, with refractive index (RI) constant 0. To determine the affinities of the mouse PD-L1 binding curves, the Rmax of the corresponding human binding profiles was used.
In the case of B14, the Kd is reported as 137 nM.

These binders were tested against T4, biotinylated human PD-L1-Avi-His (Acro Biosystems, PD1-H82E5) (human, UniProt Q9NZQ7 19-238, biotinylated) (assay: SPR (Biacore T200), mAb on Protein A chip, antigen 81-0.037 nM).
T4 construct: Bought
T4 sequence (Q9NZQ7 19-238 limits assumed): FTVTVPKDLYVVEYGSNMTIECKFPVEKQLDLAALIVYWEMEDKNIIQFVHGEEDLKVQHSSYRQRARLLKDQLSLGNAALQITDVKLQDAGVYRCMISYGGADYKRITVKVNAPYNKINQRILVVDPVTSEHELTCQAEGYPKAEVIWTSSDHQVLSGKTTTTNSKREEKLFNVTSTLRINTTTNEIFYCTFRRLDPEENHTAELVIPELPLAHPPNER
Description: as §1
B14 showed a Kd of 1.1 nM.

What follows are binders tested against T5, cynomolgus PD-L1-His (Acro Biosystems, PD1-C52H4) (cynomolgus, UniProt G7PSE7 19-239) in the same assay as above.
T5 construct: Bought; also called Cyno PD-L1-His
T5 sequence (G7PSE7 entry or part of it): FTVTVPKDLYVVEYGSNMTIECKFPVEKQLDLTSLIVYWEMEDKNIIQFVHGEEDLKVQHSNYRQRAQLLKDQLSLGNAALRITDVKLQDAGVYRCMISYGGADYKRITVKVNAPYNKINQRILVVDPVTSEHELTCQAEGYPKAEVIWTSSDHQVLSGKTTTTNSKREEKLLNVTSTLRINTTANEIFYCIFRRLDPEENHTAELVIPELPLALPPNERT
Description: as §1
Binder B14 has a Kd of 1.32 nM.

Each binder was assayed against T4, biotinylated human PD-L1-Avi-His (Acro …) (assay: SPR as in Example 3.2, mAb on Protein A chip).
Description: as §1
Work on B15 yielded a Kd of 1.34 nM.
In the case of B16, the Kd is reported as 0.5 nM.
With B17 the Kd was 0.21 nM.
With B18 the Kd was 0.44 nM.

These binders were tested against T5, cynomolgus PD-L1-His (Acro Biosystems, …) (assay: SPR as in Example 3.2, mAb on Protein A chip).
Description: as §1
In the case of B15, the Kd is reported as 2.45 nM.
For B16, the Kd was 0.89 nM.
Work on B17 yielded a Kd of 0.37 nM.
In the case of B18, the Kd is reported as 0.75 nM.

These binders were tested against PD-L1 on PD-L1 cells (Promega, CS178103; PD1/PD-L1 Blockade Bioassay J1250/J1255) (UniProt Q9NZQ7 19-290) (assay: cell-based or functional assay).
Chain of PD-L1 on PD-L1 cells (Promega, CS178103; PD1/PD-L1 Blockade Bioassay J1250/J1255) (Q9NZQ7 19-290): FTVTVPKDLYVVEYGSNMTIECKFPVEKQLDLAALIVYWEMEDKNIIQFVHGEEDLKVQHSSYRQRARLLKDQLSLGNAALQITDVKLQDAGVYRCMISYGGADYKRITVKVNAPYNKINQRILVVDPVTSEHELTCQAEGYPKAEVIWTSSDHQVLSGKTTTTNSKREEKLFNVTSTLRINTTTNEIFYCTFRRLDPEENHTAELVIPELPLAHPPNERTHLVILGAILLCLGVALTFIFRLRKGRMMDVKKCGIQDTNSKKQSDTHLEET
In the case of B4, the “IC50 (nM), PD1/PD-L1 Blockade Bioassay” value is reported as 0.51 nM.
